Test results reported in US20240101682A1 (PINETREE THERAPEUTICS, published 2024).

What was measured:
[1] = target: T1, recombinant human NRP1, biotinylated (human, UniProt O14786-2 22-644, limits assumed, biotinylated (site not stated)); assay: BLI (Octet Red 96), biotinylated antigen on streptavidin sensor, bsAb in solution, bivalent format
T1 construct: also called huNRP1; recombinant NRP1

[2] = target: T2, recombinant human EGFR, biotinylated (human, UniProt P00533 25-645, biotinylated (site not stated)); assay: as above
T2 construct: also called huEGFR; recombinant huEGFR

Kd [1] [nM]	Kd [2] [nM]	Binder
69.7		bsAb with heavy chain polypeptide SEQ ID NO: 1 and light chain SEQ ID NO: 12 (control) (bispecific antibody, human IgG2, kappa) heavy: QVQLQESGPGLVKPSETLSLTCTVSGGSVSSGDYYWTWIRQSPGKGLEWIGHIYYSGNTNYNPSLKSRLTISIDTSKTQFSLKLSSVTAADTAIYYCVRDRVTGAFDIWGQGTMVTVSSASTKGPSVFPLAPCSRSTSESTAALGCLVKDYFPEPVTVSWNSGALTSGVHTFPAVLQSSGLYSLSSVVTVPSSNFGTQTYTCNVDHKPSNTKVDKTVERKCCVECPPCPAPPVAGPSVFLFPPKPKDTLMISRTPEVTCVVVDVSHEDPEVQFNWYVDGVEVHNAKTKPREEQFNSTFRVVSVLTVVHQDWLNGKEYKCKVSNKGLPAPIEKTISKTKGQPREPQVYTLPPSREEMTKNQVSLTCLVKGFYPSDIAVEWESNGQPENNYKTTPPMLDSDGSFFLYSKLTVDKSRWQQGNVFSCSVMHEALHNHYTQKSLSLSPGKGGGGSGGGGSGGGGSHTPGNSKPTRTPRR light: not shown
0.53	< 0.1	bsAb with heavy chain polypeptide SEQ ID NO: 3 and light chain SEQ ID NO: 12 (bispecific antibody, human IgG2, kappa) heavy: QVQLQESGPGLVKPSETLSLTCTVSGGSVSSGDYYWTWIRQSPGKGLEWIGHIYYSGNTNYNPSLKSRLTISIDTSKTQFSLKLSSVTAADTAIYYCVRDRVTGAFDIWGQGTMVTVSSASTKGPSVFPLAPCSRSTSESTAALGCLVKDYFPEPVTVSWNSGALTSGVHTFPAVLQSSGLYSLSSVVTVPSSNFGTQTYTCNVDHKPSNTKVDKTVERKCCVECPPCPAPPVAGPSVFLFPPKPKDTLMISRTPEVTCVVVDVSHEDPEVQFNWYVDGVEVHNAKTKPREEQFNSTFRVVSVLTVVHQDWLNGKEYKCKVSNKGLPAPIEKTISKTKGQPREPQVYTLPPSREEMTKNQVSLTCLVKGFYPSDIAVEWESNGQPENNYKTTPPMLDSDGSFFLYSKLTVDKSRWQQGNVFSCSVMHEALHNHYTQKSLSLSPGKGGGGSGGGGSGGGGSEVQLVESGGGLVQPGGSLRLSCAASGFTFSSYAMSWVRQAPGKGLEWVSQISPAGGYTNYADSVKGRFTISADTSKNTAYLQMNSLRAEDTAVYYCARGELPYFRMSKVMDVWGQGTLVTVSSGGGGSGGGGSGGGGSDIQMTQSPSSLSASVGDRVTITCRASQFLSSYLAWYQQKPGKAPKLLIYGASARASGVPSRFSGSGSGTDFTLTISSLQPEDFATYYCQQYLASPATFGQGTKVEIK light: not shown
	< 0.1	bsAb with heavy chain polypeptide SEQ ID NO: 4 and light chain SEQ ID NO: 12 (bispecific antibody, human IgG2, kappa) heavy: QVQLQESGPGLVKPSETLSLTCTVSGGSVSSGDYYWTWIRQSPGKGLEWIGHIYYSGNTNYNPSLKSRLTISIDTSKTQFSLKLSSVTAADTAIYYCVRDRVTGAFDIWGQGTMVTVSSASTKGPSVFPLAPCSRSTSESTAALGCLVKDYFPEPVTVSWNSGALTSGVHTFPAVLQSSGLYSLSSVVTVPSSNFGTQTYTCNVDHKPSNTKVDKTVERKCCVECPPCPAPPVAGPSVFLFPPKPKDTLMISRTPEVTCVVVDVSHEDPEVQFNWYVDGVEVHNAKTKPREEQFNSTFRVVSVLTVVHQDWLNGKEYKCKVSNKGLPAPIEKTISKTKGQPREPQVYTLPPSREEMTKNQVSLTCLVKGFYPSDIAVEWESNGQPENNYKTTPPMLDSDGSFFLYSKLTVDKSRWQQGNVFSCSVMHEALHNHYTQKSLSLSPGKGGGGSGGGGSGGGGSEVQLVESGGGLVQPGGSLRLSCAASGFTFSSYAMSWVRQAPGKGLEWVSQISPAGGYTNYADSVKGRFTISADTSKNTAYLQMNSLRAEDTAVYYCARGELPYYQMSKVMDVWGQGTLVTVSSGGGGSGGGGSGGGGSDIQMTQSPSSLSASVGDRVTITCRASQYFSSYLAWYQQKPGKAPKLLIYGASARASGVPSRFSGSGSGTDFTLTISSLQPEDFATYYCQQYLASPATFGQGTKVEIK light: not shown
0.19	< 0.1	bsAb with heavy chain polypeptide SEQ ID NO: 2 and light chain SEQ ID NO: 12 (bispecific antibody, human IgG2, kappa) heavy: QVQLQESGPGLVKPSETLSLTCTVSGGSVSSGDYYWTWIRQSPGKGLEWIGHIYYSGNTNYNPSLKSRLTISIDTSKTQFSLKLSSVTAADTAIYYCVRDRVTGAFDIWGQGTMVTVSSASTKGPSVFPLAPCSRSTSESTAALGCLVKDYFPEPVTVSWNSGALTSGVHTFPAVLQSSGLYSLSSVVTVPSSNFGTQTYTCNVDHKPSNTKVDKTVERKCCVECPPCPAPPVAGPSVFLFPPKPKDTLMISRTPEVTCVVVDVSHEDPEVQFNWYVDGVEVHNAKTKPREEQFNSTFRVVSVLTVVHQDWLNGKEYKCKVSNKGLPAPIEKTISKTKGQPREPQVYTLPPSREEMTKNQVSLTCLVKGFYPSDIAVEWESNGQPENNYKTTPPMLDSDGSFFLYSKLTVDKSRWQQGNVFSCSVMHEALHNHYTQKSLSLSPGKGGGGSGGGGSGGGGSEVQLVESGGGLVQPGGSLRLSCAASGFTFSSYAMSWVRQAPGKGLEWVSQISPAGGYTNYADSVKGRFTISADTSKNTAYLQMNSLRAEDTAVYYCARGELPYYRMSKVMDVWGQGTLVTVSSGGGGSGGGGSGGGGSDIQMTQSPSSLSASVGDRVTITCRASQYFSSYLAWYQQKPGKAPKLLIYGASSRASGVPSRFSGSGSGTDFTLTISSLQPEDFATYYCQQYLGSPPTFGQGTKVEIK light: not shown
